Results taken from article doi:10.1101/2024.06.07.597859 (bioRxiv, 2024).
Several values for one entry are separate records, joined by “and”; a condition that tells them apart may be missing. Identical values can stand only once.

Target: the molecule itself
Assay: cross-linking

B1: Plasmodium falciparum tRNA-splicing endonuclease PfTSEN1 (enzyme, UniProt A0A144A1E9 1-220, looked up)
chain: MKIIYEFKKEYYEIILNENNADDNVIDLFEKNTNKCNIEIKPYDDINSDLLDFDQFKMFNIDKDDIKKKNEDKKDEDRIKYILDKESYNNSIDKLNDNSCDESCYITDDELCKQINNPFDNTYNNKFVVKYKEYFEENSFIVKKGDIYGADFLLYITEQKYAHSLYAVYIIYKHYILRDLIRILRVSHSIKKKVILILWNELNCFNISDTLVYIKSYKYK
stoichiometry N: 2 and 3 and 4
